Data published in PMC11700639.

Molecular target: T1, MPZ-GFP (human), P25189
T1 chain: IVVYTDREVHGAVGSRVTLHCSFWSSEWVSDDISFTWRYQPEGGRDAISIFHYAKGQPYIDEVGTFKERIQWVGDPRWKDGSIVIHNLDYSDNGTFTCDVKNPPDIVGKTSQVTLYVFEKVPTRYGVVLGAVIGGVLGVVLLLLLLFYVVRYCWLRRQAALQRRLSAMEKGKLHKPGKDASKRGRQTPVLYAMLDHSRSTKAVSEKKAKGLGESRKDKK
Experiment: FRET or BRET
Conditions: remark: other sources report otherwise

- FRET efficiency: 5.3%
B1: MPZ-mCherry, P25189 30-248 (natural protein)
chain: IVVYTDREVHGAVGSRVTLHCSFWSSEWVSDDISFTWRYQPEGGRDAISIFHYAKGQPYIDEVGTFKERIQWVGDPRWKDGSIVIHNLDYSDNGTFTCDVKNPPDIVGKTSQVTLYVFEKVPTRYGVVLGAVIGGVLGVVLLLLLLFYVVRYCWLRRQAALQRRLSAMEKGKLHKPGKDASKRGRQTPVLYAMLDHSRSTKAVSEKKAKGLGESRKDKK
